Test results as given in patent US20240067745A1 (ABMAX BIOTECHNOLOGY, published 2024).
Numbering of substitutions follows the chain as printed. Values joined by “and” are separate entries in the source; they are usually repeats but may differ in a detail not shown here. Equal entries are not always repeated. Values belong to the binder of their own block, whether it stands above or below them.

Columns and labels:
IL-4 = molecular target: T1, IL-4 (UniProt P05112 25-153); assay: indirect ELISA, factor coated at 1 µg/ml
T1 construct: Purchased coating factor
T1 sequence (looked up): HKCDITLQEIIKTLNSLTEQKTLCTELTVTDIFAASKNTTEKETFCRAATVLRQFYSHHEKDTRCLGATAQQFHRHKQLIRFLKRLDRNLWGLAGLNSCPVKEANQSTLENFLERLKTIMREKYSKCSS
Protocol: (§1) The specific experimental process is as follows: C5, C3, C3b, rIFN γ (recombinant human interferon γ), IL-1α, IL-1β, IL-2, IL-4 and IL-8 (purchased from Inshore Technology, respectively) were mixed with PBS. Co., Ltd.), dilute the antigen to 1 μg/ml; add 100 μl/well of the diluted antigen to a 96-well plate, cover, overnight at 4° C.; shake off the liquid in the well, wash three times with PBS, 200 μl/well, manually Pat dry; block with 200 μl/well of 5% milk, block for 1 h, tap the edge of the ELISA plate every 15 minutes to promote the reaction; shake off the liquid in the well, wash once with PBS, 200 μl/well, pat dry by hand; add different light chains Heavy chain combination antibody, diluted in 5% milk, 100 μl/well, incubated for 1 h, tap the edge of the ELISA plate every 15 min to promote the reaction; shake off the liquid in the well, wash three times with PBS, 200 μl/well, pat dry by hand; add Goat anti-human secondary antibody, diluted in 5% milk, 100 μl/well; incubate for 1 h, tap the edge of the ELISA plate every 15 min to promote the reaction; preheat the TMB substrate at room temperature, and turn on the microplate reader to preheat; wash 5 times with PBS, 250 μl/well, the first three times 5 min, the last two times 10 min, pat dry by hand; add 50 μl/well of TMB substrate AB to each well, and develop color at room temperature for 20 min; use a scanner to scan and record the pictures, add 50 μl/well of stop solution, use enzyme The standard instrument reads OD450 and archives.

IL-1α = molecular target: T2, IL-1α (UniProt P01583 113-271); assay: indirect ELISA, factor coated at 1 µg/ml
T2 construct: Purchased coating factor
T2 sequence (looked up): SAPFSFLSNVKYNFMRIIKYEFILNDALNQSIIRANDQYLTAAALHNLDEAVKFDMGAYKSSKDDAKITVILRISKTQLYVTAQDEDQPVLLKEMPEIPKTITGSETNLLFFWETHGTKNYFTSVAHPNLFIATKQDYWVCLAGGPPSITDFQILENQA
Protocol: as §1

IL-8 = molecular target: T3, IL-8 (UniProt P10145 28-99, limits assumed); assay: indirect ELISA, factor coated at 1 µg/ml
T3 construct: Purchased coating factor
T3 sequence (looked up): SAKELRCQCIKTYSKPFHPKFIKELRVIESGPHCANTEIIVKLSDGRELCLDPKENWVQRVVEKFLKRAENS
Protocol: as §1

C3 = molecular target: T4, C3 (UniProt P01024 23-1663, limits assumed); assay: indirect ELISA, factor coated at 1 µg/ml
T4 construct: Purchased coating factor
T4 sequence (P01024 23-1663 limits assumed): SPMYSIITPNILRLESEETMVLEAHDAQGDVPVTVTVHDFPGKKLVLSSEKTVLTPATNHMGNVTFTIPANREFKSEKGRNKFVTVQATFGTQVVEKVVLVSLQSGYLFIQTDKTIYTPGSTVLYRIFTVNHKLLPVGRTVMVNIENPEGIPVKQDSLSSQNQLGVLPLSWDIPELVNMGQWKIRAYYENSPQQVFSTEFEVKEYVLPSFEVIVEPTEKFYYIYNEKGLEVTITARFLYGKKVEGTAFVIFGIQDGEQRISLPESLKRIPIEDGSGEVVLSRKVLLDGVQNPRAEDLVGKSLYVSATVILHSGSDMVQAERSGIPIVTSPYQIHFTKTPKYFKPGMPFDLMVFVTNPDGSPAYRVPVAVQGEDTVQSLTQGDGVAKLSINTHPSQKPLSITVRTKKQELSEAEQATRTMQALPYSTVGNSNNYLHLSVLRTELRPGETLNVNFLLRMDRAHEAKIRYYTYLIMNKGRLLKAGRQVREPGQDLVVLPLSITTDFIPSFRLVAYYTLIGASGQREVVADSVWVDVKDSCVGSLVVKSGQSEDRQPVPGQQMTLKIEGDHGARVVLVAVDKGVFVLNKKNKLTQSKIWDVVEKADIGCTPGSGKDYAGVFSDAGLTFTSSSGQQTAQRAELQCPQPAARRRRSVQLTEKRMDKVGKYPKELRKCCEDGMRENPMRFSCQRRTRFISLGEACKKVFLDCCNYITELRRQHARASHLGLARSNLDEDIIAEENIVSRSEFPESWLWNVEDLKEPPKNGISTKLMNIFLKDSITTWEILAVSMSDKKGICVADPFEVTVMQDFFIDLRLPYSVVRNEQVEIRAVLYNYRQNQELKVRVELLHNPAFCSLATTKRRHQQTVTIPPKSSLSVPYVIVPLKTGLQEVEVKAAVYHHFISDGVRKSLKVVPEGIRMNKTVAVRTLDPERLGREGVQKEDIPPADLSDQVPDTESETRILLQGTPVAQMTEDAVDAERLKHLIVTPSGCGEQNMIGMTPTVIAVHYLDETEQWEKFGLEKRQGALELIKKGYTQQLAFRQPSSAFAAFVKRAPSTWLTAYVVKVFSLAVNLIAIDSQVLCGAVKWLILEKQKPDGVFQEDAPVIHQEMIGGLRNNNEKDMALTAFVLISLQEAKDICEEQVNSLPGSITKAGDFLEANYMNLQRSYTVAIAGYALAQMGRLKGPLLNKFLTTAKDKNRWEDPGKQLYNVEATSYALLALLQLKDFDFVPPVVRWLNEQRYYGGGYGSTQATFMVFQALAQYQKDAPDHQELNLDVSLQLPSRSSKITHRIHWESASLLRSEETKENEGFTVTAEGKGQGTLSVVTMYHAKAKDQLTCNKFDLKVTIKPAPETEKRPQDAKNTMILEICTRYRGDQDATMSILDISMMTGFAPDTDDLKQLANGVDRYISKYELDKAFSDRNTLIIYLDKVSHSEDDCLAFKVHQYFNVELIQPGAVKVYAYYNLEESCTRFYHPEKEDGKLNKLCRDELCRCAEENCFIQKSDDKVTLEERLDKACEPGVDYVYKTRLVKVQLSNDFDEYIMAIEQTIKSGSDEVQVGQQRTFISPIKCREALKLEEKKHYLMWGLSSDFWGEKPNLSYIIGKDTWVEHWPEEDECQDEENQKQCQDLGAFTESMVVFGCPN
Protocol: as §1

IL-1β = molecular target: T5, IL-1β (UniProt P01584 117-269); assay: indirect ELISA, factor coated at 1 µg/ml
T5 construct: Purchased coating factor
Protocol: as §1

IL-2 = molecular target: T6, IL-2 (UniProt P60568 21-153); assay: indirect ELISA, factor coated at 1 µg/ml
T6 construct: Purchased coating factor
T6 sequence (P60568 21-153 limits assumed): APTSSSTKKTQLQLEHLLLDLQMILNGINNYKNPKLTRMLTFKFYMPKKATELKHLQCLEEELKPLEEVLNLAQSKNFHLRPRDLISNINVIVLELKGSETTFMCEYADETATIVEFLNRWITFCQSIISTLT
Protocol: as §1

[1] = molecular target: T7, rIFN γ (recombinant human interferon γ) (human, UniProt P01579 24-166, limits assumed); assay: indirect ELISA, factor coated at 1 µg/ml
T7 construct: Purchased coating factor
T7 sequence (looked up): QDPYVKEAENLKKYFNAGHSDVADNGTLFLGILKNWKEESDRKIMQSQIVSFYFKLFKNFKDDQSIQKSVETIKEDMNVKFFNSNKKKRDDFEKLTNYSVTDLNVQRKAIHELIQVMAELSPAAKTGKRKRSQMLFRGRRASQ
Protocol: as §1

complement protein C5 = molecular target: T8, complement protein C5 (human, UniProt P01031 19-1676, limits assumed); assay: indirect ELISA, C5 coated at 0.3 µg/ml
T8 construct: Purchased antigen coated on the ELISA plate; Natural C5 is processed into beta and alpha chains from one precursor; also called human C5
T8 sequence (P01031 19-1676 limits assumed): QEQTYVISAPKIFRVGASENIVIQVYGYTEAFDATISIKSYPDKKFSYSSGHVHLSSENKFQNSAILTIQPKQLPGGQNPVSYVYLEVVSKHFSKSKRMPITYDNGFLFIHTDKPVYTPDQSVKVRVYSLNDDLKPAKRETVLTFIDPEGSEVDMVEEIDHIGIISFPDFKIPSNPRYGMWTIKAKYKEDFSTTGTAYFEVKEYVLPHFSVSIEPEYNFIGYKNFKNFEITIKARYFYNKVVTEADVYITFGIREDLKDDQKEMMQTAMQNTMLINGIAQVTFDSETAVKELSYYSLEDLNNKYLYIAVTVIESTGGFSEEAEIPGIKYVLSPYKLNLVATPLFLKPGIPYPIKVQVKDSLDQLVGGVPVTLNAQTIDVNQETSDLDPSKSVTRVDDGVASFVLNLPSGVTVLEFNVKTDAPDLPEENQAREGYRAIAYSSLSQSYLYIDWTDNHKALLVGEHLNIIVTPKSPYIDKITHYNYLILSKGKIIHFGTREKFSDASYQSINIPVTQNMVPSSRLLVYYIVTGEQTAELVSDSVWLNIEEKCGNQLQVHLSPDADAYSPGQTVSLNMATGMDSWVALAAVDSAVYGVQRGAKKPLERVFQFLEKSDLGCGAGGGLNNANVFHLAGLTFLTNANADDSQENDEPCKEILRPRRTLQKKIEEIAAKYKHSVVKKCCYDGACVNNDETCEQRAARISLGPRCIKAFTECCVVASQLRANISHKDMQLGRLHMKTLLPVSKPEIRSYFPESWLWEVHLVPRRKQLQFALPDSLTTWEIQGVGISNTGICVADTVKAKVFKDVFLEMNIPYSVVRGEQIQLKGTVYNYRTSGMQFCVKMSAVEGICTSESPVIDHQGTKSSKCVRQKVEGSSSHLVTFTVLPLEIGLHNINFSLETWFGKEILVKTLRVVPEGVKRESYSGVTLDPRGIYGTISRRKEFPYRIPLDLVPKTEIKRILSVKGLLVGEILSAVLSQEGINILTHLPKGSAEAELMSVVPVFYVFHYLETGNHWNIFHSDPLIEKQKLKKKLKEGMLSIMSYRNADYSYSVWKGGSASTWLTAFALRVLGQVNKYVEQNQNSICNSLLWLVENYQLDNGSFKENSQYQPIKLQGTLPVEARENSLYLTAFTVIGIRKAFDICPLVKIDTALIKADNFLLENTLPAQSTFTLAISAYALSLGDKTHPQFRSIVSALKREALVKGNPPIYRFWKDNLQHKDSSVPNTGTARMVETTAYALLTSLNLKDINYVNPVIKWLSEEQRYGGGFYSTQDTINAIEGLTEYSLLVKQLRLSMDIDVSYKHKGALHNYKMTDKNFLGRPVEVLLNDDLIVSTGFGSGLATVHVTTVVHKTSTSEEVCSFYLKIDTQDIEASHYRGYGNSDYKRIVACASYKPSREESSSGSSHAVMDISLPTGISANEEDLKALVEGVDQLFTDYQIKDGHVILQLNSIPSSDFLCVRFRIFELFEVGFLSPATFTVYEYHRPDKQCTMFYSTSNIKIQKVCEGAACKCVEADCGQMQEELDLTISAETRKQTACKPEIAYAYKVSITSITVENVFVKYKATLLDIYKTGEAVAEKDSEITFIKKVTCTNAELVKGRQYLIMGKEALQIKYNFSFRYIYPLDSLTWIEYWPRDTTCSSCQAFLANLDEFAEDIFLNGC
Protocol: The experimental method is as follows: Dilute the antigen with C5 (purchased from Nearshore Technology Co., Ltd.) to 0.3 μg/ml with PBS; add 100 μl/well of the diluted antigen to a 96-well plate, cover, overnight at 4° C.; shake off The liquid in the well was washed three times with PBS, 200 μl/well, and patted dry; blocked with 5% milk-PBS 200 μl/well for 1 hour, and tapped every 15 minutes; the liquid in the well was shaken off, washed once with PBS, 200 μl/well, and patted dry; Add purified antibody (0-10 μg/ml) in a gradient, see Table 4 for antibody name, 5% milk-PBS dilution, 100 μl/well, incubate for 1 h, tap every 15 min; shake off the liquid in the well, wash three times with PBS, 200 μl/well, pat dry; add secondary antibody, diluted in 5% milk-PBS, 100 μl/well, incubate for 1 h, tap every 15 min; preheat TMB substrate at room temperature, and turn on the microplate reader to preheat; wash 5 times with PBS, 250μl/well, the first three times 5 min, the last two times 10 min, pat dry; add 50 μl/well of TMB substrate AB each, and develop color at room temperature for 20 min; use a scanner to scan and record the picture, add 50 μl/well of stop solution, use enzyme labeling The meter reads OD450.

- binding result (IL-4): no binding
- binding result (IL-1α): no binding
- binding result (IL-8): no binding
- binding result (C3): no binding
- binding result (IL-1β): no binding
- binding result (IL-2): no binding
- binding result [1]: no binding
- EC50 (complement protein C5): 0.00382 µg/mL and 0.0255 nM
B1: Improved Eculizumab monoclonal antibody H1L0 (antibody, human IgG1, kappa, V domains shown)
VH: QVQLVQSGGGVVQPGASVKVSCKASGYIFSNYWIQWVRQAPGQGLEWMGEILPGSGSTEYTENFKDRVTMTRDTSTSTVYMELSSLRSEDTAVYYCARYFFGSSPNWYFDVWGQGTLVTVSS
VL: DIQMTQSPSSLSASVGDRVTITCGASENIYGALNWYQQKPGKAPKLLIYGATNLADGVPSRFSGSGSGTDFTLTISSLQPEDFATYYCQNVLNTPLTFGQGTKVEIKR
notes: also called Improved H1L0; H1L0 (Improved)

- binding result (IL-4): no binding
- binding result (IL-1α): no binding
- binding result (IL-8): no binding
- binding result (C3): no binding
- binding result (IL-1β): no binding
- binding result (IL-2): no binding
- binding result [1]: no binding
B2: Improved Eculizumab monoclonal antibody H3L0 (antibody, human IgG1, kappa, V domains shown)
VH: B1 VH with M70L, R72T, T74S, S77T, V79A, S84K, R87Q, S88F, E89D
VL: B1 VL
notes: also called Improved H3L0; H3L0 (Improved)
